The values that follow come from the nanobody polyreactivity screen of Harvey et al. (2022).

This series in a line: yeast display, Sf9 membrane polyspecificity reagent, FACS + sequencing; frameworks hold sequencing errors. In outline:
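Nanobodies from a synthetic yeast display library (Saccharomyces cerevisiae BJ5465), induced 36–48 hours with galactose, were stained 1 hour at 4 °C with 10% biotinylated, detergent-solubilized Sf9 membrane reagent, enriched on streptavidin microbeads, then FACS-sorted. Anti-HA (expression) and streptavidin (reagent binding) fluorescence set low and high (top ~1%) gates. Polyreactivity labels come from the gate of origin. Genes were colony-PCR amplified, MiSeq 2 × 250 sequenced and filtered by CDR length.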
Regarding “QVQLVESGGGLVQAGGSLRLSCAASGIIFFGYAMGWYRQAPGKERELVADITNGGRTYYADSVKGRFTISRDNAKNTVYLQMNSLKPEDTAVYYCAADAFWEVYYYNALEYDYWGQGTQVTVSS”, the “polyreactivity (PSR sort gate)” value is on record as “high polyreactivity”.

On to “QVQLVESGGGLVQAGGSLRLSCAASGIIFGAYAMGWYRQAPGKERELVAAITYSSGSTYYADSVKGRFTISRDNAKNTVYLQMNRLKPEDTAVYYCAKTNFSQSSRSNYDYWGQGTQVTVSS”, for which the “polyreactivity (PSR sort gate)” value is recorded as “low polyreactivity”.

“QVQLVESGGGLVQAGGSLRLSCAASGIIFGGNVMGWYRQAPGKERELVAAISGTGDNTYYADSVKGRFTISRDNAKNTVYLQMNSLKPEDTAVYYCNTVYYGWPRRYGYWGQGTQVTVSS”: the “polyreactivity (PSR sort gate)” value was “high polyreactivity”.

For the sequence “QVQLVESGGGLVQAGGSLRLSCAASGIIFGGYAMGWYRQAPGKERELVASITWGGGSTYYADSVKGRFTISRDNAKNTVYLQMNSLKPEDTAVYYCNKRGYPGYDWGQGTQVTVSS”, the “polyreactivity (PSR sort gate)” value is recorded as “low polyreactivity”.

Consider “QVQLVESGGGLVQAGGSLRLSCAASGIIFGHYALGWYRQAPGKERELVAAITASSGNTYYADSVKGRFTISRDNAKNTVYLQMNSLKPEDTAVYYCAAVSYSSYRYDSWGQGTQVTVSS”, for which the “polyreactivity (PSR sort gate)” value is “high polyreactivity”.

Consider “QVQLVESGGGLVQAGGSLRLSCAASGIIFGIYARGWYRQAPGKERELVAAIRYRGGNTNYADSVKGRFTISRDNAKNTVYLQMNSLKPEDTAVYYCAAKRFADPYYYWGQGTQVTVSS”, for which the “polyreactivity (PSR sort gate)” value was “high polyreactivity”.

Take “QVQLVESGGGLVQAGGSLRLSCAASGIIFGKYDMGWYRQAPGKEREMVAAITSGTSTNYADSVKGRFTISRDNAKNTVYLQMNSLKPEDTAVYSCAADVYLYYPYFGHRRYNYWGQGTQVTVSS”: the “polyreactivity (PSR sort gate)” value is given as “high polyreactivity”.

As for “QVQLVESGGGLVQAGGSLRLSCAASGIIFGRNARGWYRQAPGKEREMVAGITRRGARTYYADSVKGRFTISRDNAKNTVDLQMKSLKPEDTSVYYCATYSVQTDYGRGDYWGQGTKVTVSS”, the “polyreactivity (PSR sort gate)” value is “high polyreactivity”.

As to “QVQLVESGGGLVQAGGSLRLSCAASGIIFGTNAMGWSRQAPGKERELVAAITWSGGTYYADSVKGRFTISRDNAKITVYLQMNSQKPEDTAVYYCNAEWRVYPDLYDYWGQGTQVTVSS”, the “polyreactivity (PSR sort gate)” value is listed as “low polyreactivity”.

On to “QVQLVESGGGLVQAGGSLRLSCAASGIIFGTNAMGWSRQAPGKERELVAGITSSGDSTYYADSVKGRFTISRDNAKNTVYLQMNSLKPEDTAVYYCARDIRTREFDSWGQGTQVTVSS”, for which the “polyreactivity (PSR sort gate)” value is recorded as “low polyreactivity”.

In the case of “QVQLVESGGGLVQAGGSLRLSCAASGIIFGTNAMGWYRQAPGKERELVAYITSGGSTYADSVKGRFKISRDNAKNTVYLQMNSLKPEDTAVYSCAAYVFWAFYEYDYWGQGTQVTVSS”, the “polyreactivity (PSR sort gate)” value was “low polyreactivity”.

Take “QVQLVESGGGLVQAGGSLRLSCAASGIIFGTYAMGWYRQAPGKERELVAVITSGAGRTYYADSVKGRFTISRDNAKNTVYLQMNSLKPEDTAVDYCAARVWYPRYDYWGQGTQVTVSS”: the “polyreactivity (PSR sort gate)” value is listed as “high polyreactivity”.

As to “QVQLVESGGGLVQAGGSLRLSCAASGIIFGVYAMGWYREAPGKERELVAAISRSGDSTYYADSVKGRFTISRDNAKNTVYLQMNSLKPEDTAVYYCAAEWYFTFDYWGQGTQVTVSS”, the “polyreactivity (PSR sort gate)” value is “low polyreactivity”.

Consider “QVQLVESGGGLVQAGGSLRLSCAASGIIFGVYAMGWYRQAPGKERELVAAISRSGDSTYYADSVKGRFTISRDNAKNTVYLQMNSLKPEDTAVYYCAAEWYITFDYWGQGTQVTVSS”, for which the “polyreactivity (PSR sort gate)” value is reported as “low polyreactivity”.

Regarding “QVQLVESGGGLVQAGGSLRLSCAASGIIFGWYAMGWYRKAPGKERELVAAISSGGRTNYADSVKGRFTISRDNAKNTVYLQMNSLKPEDTAVYYCAAAYIRGSRRYDYWGQGTQVTVSS”, the “polyreactivity (PSR sort gate)” value is “high polyreactivity”.

Turning to “QVQLVESGGGLVQAGGSLRLSCAASGIIFGYYAMGWYRQAPGKERELVAAISWSGVSTYYADSVKGRFTISRDNAKNTVYLQMHSLKPEDTAVYYCAVGYVLTGVFQARFDYWGQGTQVTVSS”, the “polyreactivity (PSR sort gate)” value was “high polyreactivity”.

Regarding “QVQLVESGGGLVQAGGSLRLSCAASGIIFHFNAMGWYRQAPGKERELVAAITSGANTNYADSVKGRFTISRDNAKNTVYLQMNSLKPEDTSVYYCATRPHTDVRFVRTRRYDYWGQGTQVTVSS”, the “polyreactivity (PSR sort gate)” value was “low polyreactivity”.

With “QVQLVESGGGLVQAGGSLRLSCAASGIIFHFNEMGWYRQAPGKERELVAAITSGGSTNYADSVKGRFTISRDNAKNTVYLQMNSLKPEDTAVYYCAARRGLRLFAYRHGYWGQGTQVTVSS”, the “polyreactivity (PSR sort gate)” value is listed as “low polyreactivity”.

With “QVQLVESGGGLVQAGGSLRLSCAASGIIFHKYAMGWYRQAPGKERELVAVITWRGGSTYYADSVKGRFTISRDHAKNTVYLQMNSLKPEDTAVYYCAARSQYRDRTGQYGYWGQGTQVTVSS”, the “polyreactivity (PSR sort gate)” value is given as “high polyreactivity”.

As for “QVQLVESGGGLVQAGGSLRLSCAASGIIFIGNAMGWYRQAPGKERELVAAIRSGTGTNYADSVKGRFTISRDNAKNTVYLQMNSLKPEDTAVYYSNADYNSGTYTQGTHEGDYWGQGTQVTVSS”, the “polyreactivity (PSR sort gate)” value is recorded as “low polyreactivity”.

Take “QVQLVESGGGLVQAGGSLRLSCAASGIIFISNAMGWSRQAPGTERELVADITSGGGSTYYADSVKGRFTISRDNAKNTVDLQMNSLKPDDTAVYYGAKRATGAYVFFFDSWGQGTQVTVSS”: the “polyreactivity (PSR sort gate)” value is on record as “low polyreactivity”.

In the case of “QVQLVESGGGLVQAGGSLRLSCAASGIIFKEYALGGYRQAPGKERELVARITGSTGSTYADSVNGRFTISRDNAKNTVYLQMNSLKPEDTAVYYCAKYIGRGERLSDTRYGLDYWGQGTQVSVSS”, the “polyreactivity (PSR sort gate)” value was “low polyreactivity”.

Regarding “QVQLVESGGGLVQAGGSLRLSCAASGIIFKEYAMGGYRPAPGKERELVAAISGRGGSTYYADSVKGRFSISRDNAKNTVYLQMSSLKPEDTAVYYCNAVASWQRYDYWGQGTQVTVSS”, the “polyreactivity (PSR sort gate)” value is listed as “high polyreactivity”.

“QVQLVESGGGLVQAGGSLRLSCAASGIIFKIYAMGWYRQAPGKERELVAAISKRGASTYYADSVKGRFTISRDNAKNTVYLQMNSLKPEDTAVYYCAAYRQGSAYDYWGQGTQVTVSS”: the “polyreactivity (PSR sort gate)” value is given as “high polyreactivity”.

In the case of “QVQLVESGGGLVQAGGSLRLSCAASGIIFKIYAMGWYRQAPGKERELVAAISWRGGSTYYADSVKGRFTISRDNAKNTVYLQMNSLKPEDTAVYYCAAARGYRTGYGYWGQGTQVTVSS”, the “polyreactivity (PSR sort gate)” value is “high polyreactivity”.

Take “QVQLVESGGGLVQAGGSLRLSCAASGIIFKYYAMGWYRPAPGKERELVAAITASGGRTYYADSVKGRFTISRDNAKNTVYLQMNSLKPEDTAVYYCAADSRSAYDYWGQGTQVTVSS”: the “polyreactivity (PSR sort gate)” value is recorded as “high polyreactivity”.

For “QVQLVESGGGLVQAGGSLRLSCAASGIIFKYYAMGWYRQAPGKERELVAAITRSGGSTYYADSVKGRFTISRDNAKNTVYLQMYSLKPEDTAVYYCAAQTGYSYGITWQFTKYNYWGQGTQVTVSS”, the “polyreactivity (PSR sort gate)” value is “low polyreactivity”.

For the sequence “QVQLVESGGGLVQAGGSLRLSCAASGIIFLDNVMRWYRQAPGKERELVAAISSSGGSTYYADSVKGRFTISRDNAKNTVYLQMNSLKPEDTAVYYCAAYFRRGFYYWGQGTQVTVSS”, the “polyreactivity (PSR sort gate)” value is “high polyreactivity”.

As for “QVQLVESGGGLVQAGGSLRLSCAASGIIFLENAMGWYRQAPGKEREFVAAISRSGGITYYADSVKGRFTISRDNAKNTVYLQMNSLKPEDTAVYYCAAVGRDRYRHSPQPLYDYWGQGTQVTVSS”, the “polyreactivity (PSR sort gate)” value is on record as “low polyreactivity”.

Turning to “QVQLVESGGGLVQAGGSLRLSCAASGIIFLEYAMGWYRQAPGKERELVAAISSDDGSSTYYADSVKGRFTISRDNAKNTVYLKMNSLKPEDTAVYYCAAYGGGGYYYDYEYWGQGTQVTVSS”, the “polyreactivity (PSR sort gate)” value is “high polyreactivity”.
